PMC8307404, “Crystal Structure-Guided Design of Bisubstrate Inhibitors and Photoluminescent Probes for Protein Kinases of the PIM Family” (Molecules, 2021)
Square brackets hold non-standard residues; d marks the D form. Peptide text beside a SMILES is read from it. * marks the point of attachment. X3 = O=C(CCCCCNCc1nc2c(sc3cc(Br)cnc32)c(=O)[nH]1)*

Assays:
Test in all cases: Kinase profiling (radiometric filter-binding)
Assay type in all cases: biochemical
MARK4 = target: T1, MARK4 (Homo sapiens, UniProt Q96L34); details: MARK4, 1 µM inhibitor; read-out: Residual activity, %
T1 sequence (Q96L34 1-752): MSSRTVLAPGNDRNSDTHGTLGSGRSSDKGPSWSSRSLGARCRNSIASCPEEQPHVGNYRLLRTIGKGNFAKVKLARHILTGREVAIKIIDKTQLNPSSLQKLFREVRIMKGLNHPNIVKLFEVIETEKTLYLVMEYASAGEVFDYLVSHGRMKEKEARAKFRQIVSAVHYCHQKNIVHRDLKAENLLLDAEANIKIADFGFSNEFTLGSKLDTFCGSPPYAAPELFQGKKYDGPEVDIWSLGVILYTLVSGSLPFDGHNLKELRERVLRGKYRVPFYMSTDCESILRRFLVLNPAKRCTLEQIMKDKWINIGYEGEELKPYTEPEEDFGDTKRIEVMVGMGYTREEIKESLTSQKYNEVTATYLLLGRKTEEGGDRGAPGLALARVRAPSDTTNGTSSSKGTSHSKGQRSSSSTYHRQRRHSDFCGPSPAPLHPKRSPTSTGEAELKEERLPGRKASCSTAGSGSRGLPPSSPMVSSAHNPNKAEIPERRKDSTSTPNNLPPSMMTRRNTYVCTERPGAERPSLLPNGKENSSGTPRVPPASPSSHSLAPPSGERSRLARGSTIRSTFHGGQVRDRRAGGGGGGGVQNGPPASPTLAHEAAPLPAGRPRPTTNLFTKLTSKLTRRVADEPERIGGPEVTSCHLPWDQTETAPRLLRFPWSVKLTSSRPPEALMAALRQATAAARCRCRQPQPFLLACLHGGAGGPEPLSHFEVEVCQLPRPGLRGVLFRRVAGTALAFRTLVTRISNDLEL
Method: (§1) Kinase selectivity profiling was performed using the commercial service provided by the MRC PPU International Centre for Kinase Profiling (Dundee, UK) using a radiometric filter-binding assay. Kinases used for analysis were of human origin. The ATP concentration applied for inhibition measurements was at or below the ATP KM value of the particular PK. ARC-3125 and ARC-3126 were screened against 139 PKs, whereas compounds 1, 2, and 8 were screened against 140 PKs. The final total concentration of inhibitors in the selectivity panel was 1 µM. Residual activities were expressed as the percentage of retained activity compared to the control without inhibitor.

MPSK1 = MPSK1 (Homo sapiens, UniProt O75716); details: MPSK1, 1 µM inhibitor; read-out: Residual activity, %
MPSK1, sequence (O75716 whole entry): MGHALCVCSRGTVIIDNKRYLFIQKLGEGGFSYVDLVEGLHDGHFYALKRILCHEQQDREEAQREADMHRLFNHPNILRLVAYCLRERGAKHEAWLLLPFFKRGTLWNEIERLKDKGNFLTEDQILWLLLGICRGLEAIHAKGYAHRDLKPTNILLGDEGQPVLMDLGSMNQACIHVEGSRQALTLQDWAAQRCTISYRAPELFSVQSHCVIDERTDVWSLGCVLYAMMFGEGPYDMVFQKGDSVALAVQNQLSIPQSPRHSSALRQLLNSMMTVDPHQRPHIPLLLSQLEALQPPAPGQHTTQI
Method: as §1

EPH-B4 = target: T2, EPH-B4 (Homo sapiens, UniProt P54760); details: EPH-B4, 1 µM inhibitor; read-out: Residual activity, %
T2 sequence (P54760 16-987): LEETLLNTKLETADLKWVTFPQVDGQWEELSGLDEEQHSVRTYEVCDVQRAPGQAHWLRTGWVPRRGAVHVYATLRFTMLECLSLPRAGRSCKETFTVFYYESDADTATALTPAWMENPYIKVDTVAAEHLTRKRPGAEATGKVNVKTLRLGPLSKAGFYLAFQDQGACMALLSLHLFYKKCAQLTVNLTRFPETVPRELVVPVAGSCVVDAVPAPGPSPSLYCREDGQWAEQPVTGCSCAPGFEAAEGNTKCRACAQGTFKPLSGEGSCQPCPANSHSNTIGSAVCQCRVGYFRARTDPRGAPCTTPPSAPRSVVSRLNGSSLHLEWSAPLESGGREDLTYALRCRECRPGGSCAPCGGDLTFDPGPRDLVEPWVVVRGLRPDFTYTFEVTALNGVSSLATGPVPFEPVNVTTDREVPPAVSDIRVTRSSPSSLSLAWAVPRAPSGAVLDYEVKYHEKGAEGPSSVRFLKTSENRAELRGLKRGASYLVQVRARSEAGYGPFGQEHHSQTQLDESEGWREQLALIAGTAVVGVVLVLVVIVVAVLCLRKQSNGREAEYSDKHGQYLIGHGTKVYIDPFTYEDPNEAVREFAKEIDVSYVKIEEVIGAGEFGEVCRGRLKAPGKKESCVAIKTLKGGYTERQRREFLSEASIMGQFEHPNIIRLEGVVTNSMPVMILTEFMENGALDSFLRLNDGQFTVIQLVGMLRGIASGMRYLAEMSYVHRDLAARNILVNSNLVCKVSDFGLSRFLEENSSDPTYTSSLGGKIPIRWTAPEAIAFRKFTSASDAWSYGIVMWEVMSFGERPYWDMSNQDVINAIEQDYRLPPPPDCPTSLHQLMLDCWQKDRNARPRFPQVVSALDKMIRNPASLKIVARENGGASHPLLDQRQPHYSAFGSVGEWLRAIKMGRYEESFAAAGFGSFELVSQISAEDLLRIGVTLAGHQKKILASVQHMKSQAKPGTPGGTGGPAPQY
Method: as §1

CLK2 = CLK2 (Homo sapiens, UniProt P49760); details: CLK2, 1 µM inhibitor; read-out: Residual activity, %
CLK2, sequence (P49760 whole entry): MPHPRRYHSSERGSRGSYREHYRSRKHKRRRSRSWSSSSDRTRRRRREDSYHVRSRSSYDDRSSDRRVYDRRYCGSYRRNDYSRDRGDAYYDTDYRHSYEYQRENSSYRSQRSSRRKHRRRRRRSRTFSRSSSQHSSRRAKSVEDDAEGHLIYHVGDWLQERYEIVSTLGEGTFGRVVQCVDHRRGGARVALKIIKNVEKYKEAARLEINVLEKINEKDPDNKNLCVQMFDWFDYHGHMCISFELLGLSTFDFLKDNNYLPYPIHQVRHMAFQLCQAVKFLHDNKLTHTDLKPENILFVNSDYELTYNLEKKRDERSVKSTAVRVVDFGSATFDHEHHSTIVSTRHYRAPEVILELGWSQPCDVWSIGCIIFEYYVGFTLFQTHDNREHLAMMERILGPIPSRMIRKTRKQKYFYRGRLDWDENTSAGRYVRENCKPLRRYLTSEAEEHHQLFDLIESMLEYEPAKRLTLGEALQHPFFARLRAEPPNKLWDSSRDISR
Method: as §1

HIPK2 = HIPK2 (Homo sapiens, UniProt Q9H2X6); details: HIPK2, 1 µM inhibitor; read-out: Residual activity, %
HIPK2, sequence (Q9H2X6 whole entry): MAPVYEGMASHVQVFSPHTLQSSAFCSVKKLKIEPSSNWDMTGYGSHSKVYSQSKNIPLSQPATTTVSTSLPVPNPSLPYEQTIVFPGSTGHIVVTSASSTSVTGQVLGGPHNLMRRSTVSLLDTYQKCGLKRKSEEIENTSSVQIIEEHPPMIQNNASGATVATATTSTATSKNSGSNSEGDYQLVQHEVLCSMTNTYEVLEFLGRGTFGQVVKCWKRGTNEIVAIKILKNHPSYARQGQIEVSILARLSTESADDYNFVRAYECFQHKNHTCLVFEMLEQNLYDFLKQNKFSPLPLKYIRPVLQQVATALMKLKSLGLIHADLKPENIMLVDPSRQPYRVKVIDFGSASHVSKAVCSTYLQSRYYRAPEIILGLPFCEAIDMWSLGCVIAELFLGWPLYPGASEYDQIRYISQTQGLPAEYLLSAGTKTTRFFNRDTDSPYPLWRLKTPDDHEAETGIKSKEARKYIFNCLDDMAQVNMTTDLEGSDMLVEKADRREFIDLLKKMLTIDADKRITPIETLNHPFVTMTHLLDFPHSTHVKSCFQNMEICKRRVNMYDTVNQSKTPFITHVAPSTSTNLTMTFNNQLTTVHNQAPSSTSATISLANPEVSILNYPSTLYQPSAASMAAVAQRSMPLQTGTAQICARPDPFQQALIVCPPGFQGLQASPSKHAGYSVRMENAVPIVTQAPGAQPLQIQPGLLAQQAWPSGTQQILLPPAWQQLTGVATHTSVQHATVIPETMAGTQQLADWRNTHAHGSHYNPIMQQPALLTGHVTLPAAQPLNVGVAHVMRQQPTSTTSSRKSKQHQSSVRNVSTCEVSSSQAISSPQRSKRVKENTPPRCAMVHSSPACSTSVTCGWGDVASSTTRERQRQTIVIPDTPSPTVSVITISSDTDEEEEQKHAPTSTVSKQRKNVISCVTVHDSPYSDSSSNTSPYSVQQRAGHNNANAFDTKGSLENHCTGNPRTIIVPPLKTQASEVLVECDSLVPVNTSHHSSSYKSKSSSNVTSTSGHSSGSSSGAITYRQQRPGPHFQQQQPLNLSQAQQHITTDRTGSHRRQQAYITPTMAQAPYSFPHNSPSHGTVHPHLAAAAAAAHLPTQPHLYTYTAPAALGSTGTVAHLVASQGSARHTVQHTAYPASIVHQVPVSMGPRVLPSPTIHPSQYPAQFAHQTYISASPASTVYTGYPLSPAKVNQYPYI
Method: as §1

PKCγ = PKCγ (Homo sapiens, UniProt P05129); details: 1 µM inhibitor, read-out: Residual activity, %
Method: as §1

NEK6 = NEK6 (Homo sapiens, UniProt Q9HC98); details: NEK6, 1 µM inhibitor; read-out: Residual activity, %
NEK6, sequence (Q9HC98 whole entry): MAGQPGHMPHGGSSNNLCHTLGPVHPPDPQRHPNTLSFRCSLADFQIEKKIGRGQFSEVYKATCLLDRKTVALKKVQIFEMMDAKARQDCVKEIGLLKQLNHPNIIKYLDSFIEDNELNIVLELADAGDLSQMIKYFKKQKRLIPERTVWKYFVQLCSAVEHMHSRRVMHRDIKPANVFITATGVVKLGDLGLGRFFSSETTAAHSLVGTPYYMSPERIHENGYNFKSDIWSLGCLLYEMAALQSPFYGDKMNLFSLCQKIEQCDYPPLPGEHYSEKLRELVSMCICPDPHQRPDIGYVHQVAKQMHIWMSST
Method: as §1

MST3 = MST3 (Homo sapiens, UniProt Q9Y6E0); details: MST3, 1 µM inhibitor; read-out: Residual activity, %
MST3, sequence (Q9Y6E0 whole entry): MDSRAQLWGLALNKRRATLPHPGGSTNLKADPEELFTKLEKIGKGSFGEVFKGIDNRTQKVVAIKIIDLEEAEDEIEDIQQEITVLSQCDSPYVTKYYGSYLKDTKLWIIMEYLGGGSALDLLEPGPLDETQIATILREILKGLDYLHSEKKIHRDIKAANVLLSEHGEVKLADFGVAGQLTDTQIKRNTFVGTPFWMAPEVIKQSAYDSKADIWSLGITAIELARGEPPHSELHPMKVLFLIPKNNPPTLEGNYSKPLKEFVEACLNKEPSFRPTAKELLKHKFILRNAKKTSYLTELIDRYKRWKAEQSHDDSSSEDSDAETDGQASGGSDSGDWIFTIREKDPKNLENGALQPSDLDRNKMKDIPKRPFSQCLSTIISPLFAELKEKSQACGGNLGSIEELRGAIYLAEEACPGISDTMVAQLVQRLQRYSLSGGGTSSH
Method: as §1

CK1δ = CK1δ (Homo sapiens, UniProt P48730); details: 1 µM inhibitor, read-out: Residual activity, %
Method: as §1

MST4 = MST4 (Homo sapiens, UniProt Q9P289); details: MST4, 1 µM inhibitor; read-out: Residual activity, %
MST4, sequence (Q9P289 whole entry): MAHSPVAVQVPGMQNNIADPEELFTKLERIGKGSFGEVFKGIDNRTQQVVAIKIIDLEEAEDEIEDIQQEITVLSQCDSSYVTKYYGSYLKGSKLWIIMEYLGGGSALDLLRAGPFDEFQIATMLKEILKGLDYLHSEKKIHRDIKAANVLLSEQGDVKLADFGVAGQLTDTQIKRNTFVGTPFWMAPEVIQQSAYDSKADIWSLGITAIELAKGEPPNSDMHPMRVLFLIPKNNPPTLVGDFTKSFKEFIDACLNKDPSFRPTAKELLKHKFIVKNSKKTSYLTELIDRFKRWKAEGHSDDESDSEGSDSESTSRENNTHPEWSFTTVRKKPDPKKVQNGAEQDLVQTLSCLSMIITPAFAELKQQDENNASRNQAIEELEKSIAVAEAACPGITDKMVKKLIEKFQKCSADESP
Method: as §1

TIE2 = TIE2 (Homo sapiens, UniProt Q02763); details: TIE2, 1 µM inhibitor; read-out: Residual activity, %
TIE2, sequence (Q02763 23-1124): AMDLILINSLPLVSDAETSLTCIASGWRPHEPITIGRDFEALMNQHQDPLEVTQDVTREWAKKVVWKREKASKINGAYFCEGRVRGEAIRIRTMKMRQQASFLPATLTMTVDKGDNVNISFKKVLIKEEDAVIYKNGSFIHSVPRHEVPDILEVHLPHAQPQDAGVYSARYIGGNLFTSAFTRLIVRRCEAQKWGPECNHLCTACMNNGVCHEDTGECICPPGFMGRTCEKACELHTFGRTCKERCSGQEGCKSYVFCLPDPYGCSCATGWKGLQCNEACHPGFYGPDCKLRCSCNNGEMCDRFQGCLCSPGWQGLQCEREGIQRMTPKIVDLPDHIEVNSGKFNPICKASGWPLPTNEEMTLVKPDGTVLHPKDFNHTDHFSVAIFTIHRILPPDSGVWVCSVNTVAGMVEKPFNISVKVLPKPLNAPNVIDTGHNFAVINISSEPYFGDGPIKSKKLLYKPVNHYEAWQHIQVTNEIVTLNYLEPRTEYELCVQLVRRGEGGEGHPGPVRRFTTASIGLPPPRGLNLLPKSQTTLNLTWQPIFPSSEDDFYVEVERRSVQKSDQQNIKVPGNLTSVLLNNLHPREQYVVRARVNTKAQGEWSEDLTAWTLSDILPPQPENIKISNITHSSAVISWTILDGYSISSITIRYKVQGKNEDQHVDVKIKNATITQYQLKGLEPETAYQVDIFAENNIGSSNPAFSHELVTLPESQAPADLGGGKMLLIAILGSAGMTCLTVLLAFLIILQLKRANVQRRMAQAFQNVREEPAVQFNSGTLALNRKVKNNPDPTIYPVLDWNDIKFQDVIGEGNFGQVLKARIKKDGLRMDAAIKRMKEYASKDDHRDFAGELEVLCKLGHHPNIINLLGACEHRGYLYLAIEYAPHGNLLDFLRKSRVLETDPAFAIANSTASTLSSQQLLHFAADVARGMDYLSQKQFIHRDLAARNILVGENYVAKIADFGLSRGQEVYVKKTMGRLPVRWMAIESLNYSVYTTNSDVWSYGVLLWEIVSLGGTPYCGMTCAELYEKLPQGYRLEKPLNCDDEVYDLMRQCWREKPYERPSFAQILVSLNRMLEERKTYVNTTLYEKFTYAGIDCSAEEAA
Method: as §1

Row | SMILES | remaining activity at 1 µM (MARK4) | remaining activity at 1 µM (MPSK1) | remaining activity at 1 µM (EPH-B4) | remaining activity at 1 µM (CLK2) | remaining activity at 1 µM (HIPK2) | remaining activity at 1 µM (PKCγ) | remaining activity at 1 µM (NEK6) | remaining activity at 1 µM (MST3) | remaining activity at 1 µM (CK1δ) | remaining activity at 1 µM (MST4) | remaining activity at 1 µM (TIE2)
1 | N=C(N)NCCC[C@@H](NC(=O)CCCCCNC(=O)Cn1cnc2c(I)c(I)c(I)c(I)c21)C(=O)N[C@H](CCCNC(=N)N)C(=O)N[C@H](CCCNC(=N)N)C(=O)N[C@H](CCCNC(=N)N)C(=O)N[C@H](CCCNC(=N)N)C(=O)N[C@H](CCCNC(=N)N)C(=O)N[C@H](CCCCN)C(N)=O [ARC-3125, TIBI-CH2-C(=O)-Ahx-(D-Arg)6-D-Lys-NH2] | 92 ± 3% | 75 ± 3% | 119 ± 7% | -1 ± 5% | 16 ± 2% | 86 ± 9% | 97% | 51 ± 24% | 71 ± 4% | 71 ± 4% | 104 ± 9%
2 | N=C(N)NCCC[C@@H](NC(=O)CNC(=O)[C@@H](CCCNC(=N)N)NC(=O)[C@@H](CCCNC(=N)N)NC(=O)CCCCCCCNCc1nc2c(sc3cc(Br)cnc32)c(=O)[nH]1)C(=O)N[C@H](CCCCN)C(N)=O [Compound 1, BPTP-Aoc-(D-Arg)2-Gly-D-Arg-D-Lys-NH2] | 124 ± 14% | 113 ± 21% | 104 ± 2% | 97% | 103 ± 13% | 99 ± 11% | 107 ± 11% | 104 ± 3% | 104 ± 4% | 143 ± 10% | 110 ± 6%
3 | N=C(N)NCCC[C@@H](NC(=O)CNC(=O)[C@@H](CCCNC(=N)N)NC(=O)[C@@H](CCCNC(=N)N)NC(=O)CCCCCCCNCc1nc2c(sc3ccc(Br)cc32)c(=O)[nH]1)C(=O)N[C@H](CCCCN)C(N)=O [Compound 2, BBTP-Aoc-(D-Arg)2-Gly-D-Arg-D-Lys-NH2] | 128 ± 3% | 113 ± 15% | 118 ± 11% | 24% | 48 ± 2% | 97 ± 3% | 126 ± 5% | 112 ± 8% | 99 ± 3% | 121 ± 8% | 109 ± 9%
4 | N=C(N)NCCC[C@@H](NC(=O)CCCCCNCc1nc2c(sc3cc(Br)cnc32)c(=O)[nH]1)C(=O)N[C@H](CCCNC(=N)N)C(=O)N[C@H](CCCNC(=N)N)C(=O)N[C@H](CCCNC(=N)N)C(=O)N[C@H](CCCNC(=N)N)C(=O)N[C@H](CCCNC(=N)N)C(=O)N[C@H](CCCCN)C(N)=O [ARC-3126, BPTP-Ahx-(D-Arg)6-D-Lys-NH2] (X3-[dR][dR][dR][dR][dR][dR][dK]-NH2) | 119 ± 7% | 79 ± 11% | 101 ± 10% | 57 ± 15% | 75 ± 15% | 98 ± 8% | 85 ± 17% | 102 ± 5% | 99 ± 1% | 125 ± 22% | 106%
5 | N=C(N)NCCC[C@@H](NC(=O)CNC(=O)[C@@H](CCCNC(=N)N)NC(=O)[C@@H](CCCNC(=N)N)NC(=O)Cn1cc(CNCc2nc3c(sc4ccc(Br)cc43)c(=O)[nH]2)nn1)C(=O)N[C@H](CCCCN)C(N)=O [Compound 3, BBTP-Amt-(D-Arg)2-Gly-D-Arg-D-Lys-NH2] | 90 ± 12% | 110 ± 2% | 98 ± 13% | 30 ± 1% | 50 ± 7% | 105 ± 9% | 117 ± 23% | 98 ± 1% | 88 ± 12% | 95 ± 32% | 103 ± 12%
